A word on the Kd: it is a measure of binding affinity in units of concentration. Read a high Kd as lower affinity.

Data on 3 molecules can be found in US9802942B2, “Substituted 4-methyl-pyrrolo[1,2-A]pyrimidine-8-carboxamide compounds and uses thereof for modulating glucocerebrosidase activity” (Northwestern University, priority 2015, dated 2017).

The target in data set [1] is T1, GCase (Homo sapiens, UniProt P04062).
T1 construct: purchased Shire Human Genetic Therapies, Inc. Vpriv
T1 sequence (P04062 40-536): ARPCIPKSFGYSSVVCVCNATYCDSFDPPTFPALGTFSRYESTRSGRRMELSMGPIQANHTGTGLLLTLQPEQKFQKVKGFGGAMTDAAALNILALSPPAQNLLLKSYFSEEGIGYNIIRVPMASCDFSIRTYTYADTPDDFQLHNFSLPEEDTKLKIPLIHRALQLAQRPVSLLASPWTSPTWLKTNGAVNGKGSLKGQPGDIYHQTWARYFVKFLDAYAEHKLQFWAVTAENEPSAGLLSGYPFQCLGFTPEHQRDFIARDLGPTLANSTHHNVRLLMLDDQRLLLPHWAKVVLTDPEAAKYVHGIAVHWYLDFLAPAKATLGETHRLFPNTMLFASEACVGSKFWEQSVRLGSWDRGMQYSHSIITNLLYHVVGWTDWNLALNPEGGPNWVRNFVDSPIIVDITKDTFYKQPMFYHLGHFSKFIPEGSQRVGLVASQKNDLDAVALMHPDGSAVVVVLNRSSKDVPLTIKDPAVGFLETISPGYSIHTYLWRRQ
The data set can be described thus: Fluorescence polarization (FP) assay, probe titrated with enzyme. Format: binding. The conditions noted are these: probe 50 nM, enzyme 5 nM to 10 μM. How it is done: The fluorescent probe 3 (25 nL/well, 50 nM final concentration) was transferred to a 384-well black plate using a Labcyte Echo 550 Liquid Handler system. The 25 μL/well enzyme dilutions with GCase enzyme activity buffer were added to the plate, which was shaken at room temperature in dark for 20 min. The final titration was 5 nM to 10 μM, 10 concentrations, 2 times dilution. The fluorescence polarization was measured in Molecular Devices Analyst GT with Ex=535 nm and Em=580 nm, G Factor=1.05.
The fluorescent probe 3 (25 nL/well, 50 nM final concentration) was transferred to a 384-wells black plate by using Labcyte Echo 550 Liquid Handler system. The 25 μL/well enzyme dilutions in GCase enzyme activity buffer (the final titration was 5 nM to 10 μM, 10 concentrations, 2 times dilution) were added to the plate, and shook at room temperature in dark for 20 min. The fluorescence polarization was measured in Molecular Devices Analyst GT with Ex=535 nm and Em=580 nm, G Factor=1.05.
On the technique in general: Polarisation of emitted light reports the rotation of a fluorescent probe.

Data set [2] is described as follows: Enzyme stability assay in pH 4.7 buffer. Format: physicochemical. From the text: To test whether probe 4 changed the enzyme stability of GCase, we used two environments for GCase activity stability assay (Tekoah, Tzaban et al. 2013). The first one was citrate/phosphorylate buffer, which was at pH 4.7. In this condition, the wt. GCase only had about 15% activity left on day 4 (FIGS. 6A and 6B), which is similar to the previous research (Tekoah, Tzaban et al. 2013). An interesting finding was that even on day 10, activated GCase still had more than 20% activity left. […] One possible reason for the higher enzyme activity in low pH buffer was that activated GCase was stabilized by the covalent compound, and was more difficult to unfold.

The target in data set [3] is T2, recombinant wild type GCase (Homo sapiens, UniProt P04062).
T2 construct: purchased Shire Human Genetic Therapies, Inc. Vpriv
T2 sequence (P04062 40-536): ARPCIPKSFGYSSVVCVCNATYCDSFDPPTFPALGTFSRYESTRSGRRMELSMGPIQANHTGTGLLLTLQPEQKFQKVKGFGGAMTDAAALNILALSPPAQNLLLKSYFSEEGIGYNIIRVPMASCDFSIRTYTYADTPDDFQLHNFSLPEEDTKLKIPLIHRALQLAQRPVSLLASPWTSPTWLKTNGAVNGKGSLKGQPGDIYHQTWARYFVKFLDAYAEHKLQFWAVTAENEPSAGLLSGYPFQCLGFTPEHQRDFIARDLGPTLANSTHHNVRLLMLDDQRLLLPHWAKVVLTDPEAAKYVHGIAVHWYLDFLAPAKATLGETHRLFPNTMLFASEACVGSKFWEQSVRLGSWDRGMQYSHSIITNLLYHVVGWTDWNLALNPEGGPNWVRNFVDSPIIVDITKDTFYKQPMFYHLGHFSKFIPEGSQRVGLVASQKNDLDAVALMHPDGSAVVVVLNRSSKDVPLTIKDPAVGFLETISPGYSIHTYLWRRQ
As to the kind of experiment: Covalent binding assay: activity of GCase activated by probe 4. Format: biochemical. The conditions noted are these: natural substrate assay; covalent activation. As to the method:
To the recombinant wild type enzyme (22 μM, 95 μL, 1 equiv) in 0.1 M phosphate buffer (pH 7.2) was added 2,5-dioxopyrrolidin-1-yl 3-(2-(2-(4-(4-(2,4-dimethylpyrrolo[1,2-a]pyrimidine-8-carboxamido)phenyl)-1H-1,2,3-triazol-1-yl)ethoxy)ethoxy)propanoate (4) in DMSO (0.89 mM, 5 μL, 2 equiv) in one portion, and was vortexed for 5 sec immediately. At indicated time points, the reaction solution (2 μL) was sampled and diluted (1:3125 dilution) into the assay buffer (50 mM citric acid, 176 mM K2HPO4, and 0.01% Tween-20 at pH 5.9). After 2 h the reaction solution was dialyzed three times with 0.1 M phosphate buffer (pH 7.2). The enzyme was adjusted to the same concentration and sampled for activity. The dilution solutions were assayed with three substrates, resorufin substrate, 4-MU substrate, and natural substrate using the method in Example 5 and Example 6 without adding compounds.
The probe 4 was subjected to the covalent binding assay against GCase. The reaction conditions, including the buffer pH value, the concentration of the protein and probe, and the reaction temperature were carefully adjusted to achieve the maximum activation. With the optimized reaction condition, the enzyme activity was activated in a time-dependent manner (FIG. 5). The enzyme could be activated by probe 4 with around 22 and 28 folds activity comparing to the wt. GCase in the 4MU-Glc substrate (FIG. 5A) and red substrate (FIG. 5B) enzyme activity assay respectively.

The subject of data set [4] is U937 macrophage cells. The data set can be described thus: U937 macrophage uptake assay. The conditions noted are these: for activity compared to endogenous GC: PMA-induced U937 cells, 4MU-β-glc substrate. Format: cell-based, human. How it is done:
Human monocyte cell line U937 was optimally differentiated into macrophages by the addition of 75 ng/ml PMA (Brumshtein, Salinas et al. 2010) to the monocyte culture for 3 days (in 75 cm^2 flasks). Macrophages were enriched by adhesion to the culture plate and identified by morphology and receptor staining.
The assay was carried out according to the reported method (Tekoah, Tzaban et al. 2013) with slight modification. The enzyme was treated with compound 4 or DMSO at pH 7.2 for 60 min as described above, then dialyzed with PBS. U937 cells, after differentiation (˜1.6*10^6 cells), were incubated with 60 μg/ml of the activated enzymes and wt. enzyme in F12K medium for 10 min at 5% CO2, 37° C. incubator. The cells were then washed twice with ice cold PBS enriched with Mannan (1 mg/ml). To further ensure release of any proteins bound non-specifically to the membrane half of the cells were washed with ice cold glycine buffer: (0.8% NaCl, 0.038% KCl, 0.01% MgCl2, 0.01% CaCl2, 0.7% glycine [pH 3]) followed by two additional cold PBS washes. The other half of the wells were used as controls for measuring total enzymatic activity (bound and internalized enzyme). The cells were lysed by adding β-glucocerebrosidase activity buffer (60 mM phosphate-citrate buffer; 0.15% Triton X-100; 0.125% sodium taurocholate, pH 5.5), followed by pipetting and one freeze/thaw cycle. The obtained lysates were subjected to determination of enzymatic activity using the colorimetric method detailed above. The total enzymatic activity was normalized to total soluble proteins as measured by Bradford assay. The effective uptake was calculated as the percentage of activity within the cells out of the total enzymatic activity of the controls.

Several values for one entry are separate records, joined by “and”; a condition that tells them apart may be missing. Equal values may be shown once.

As for `Cc1cc(C)n2ccc(C(=O)Nc3ccc(-c4cn(CCOCCOCCNC(=O)c5ccc(-c6c7ccc(=[N+](C)C)cc-7oc7cc(N(C)C)ccc67)c(C(=O)[O-])c5)nn4)cc3)c2n1` [No. 4, 2-(3,6-Bis(dimethylamino)xanthylium-9-yl)-5-((2-(2-(2-(4-(4-(2,4-dimethylpyrrolo[1,2-a]pyrimidine-8-carboxamido)phenyl)-1H-1,2,3-triazol-1-yl)ethoxy)ethoxy)ethyl)carbamoyl)benzoate], the dissociation constant Kd in data set [1] was 0.71 µM and ~0.71 µM.

B1: activated GCase: recombinant wild type GCase covalent modified by probe 4 (NHS ester) on lysine residues, 1-3 ligands (conjugate, UniProt P04062 40-536, looked up)
Lysosomal acid …: ARPCIPKSFGYSSVVCVCNATYCDSFDPPTFPALGTFSRYESTRSGRRMELSMGPIQANHTGTGLLLTLQPEQKFQKVKGFGGAMTDAAALNILALSPPAQNLLLKSYFSEEGIGYNIIRVPMASCDFSIRTYTYADTPDDFQLHNFSLPEEDTKLKIPLIHRALQLAQRPVSLLASPWTSPTWLKTNGAVNGKGSLKGQPGDIYHQTWARYFVKFLDAYAEHKLQFWAVTAENEPSAGLLSGYPFQCLGFTPEHQRDFIARDLGPTLANSTHHNVRLLMLDDQRLLLPHWAKVVLTDPEAAKYVHGIAVHWYLDFLAPAKATLGETHRLFPNTMLFASEACVGSKFWEQSVRLGSWDRGMQYSHSIITNLLYHVVGWTDWNLALNPEGGPNWVRNFVDSPIIVDITKDTFYKQPMFYHLGHFSKFIPEGSQRVGLVASQKNDLDAVALMHPDGSAVVVVLNRSSKDVPLTIKDPAVGFLETISPGYSIHTYLWRRQ
modifications: covalent probe 4 on lysines
notes: recombinant wild type GCase covalent modified by probe 4 (NHS ester) on lysine residues, 1-3 ligands
For the molecule B1, the activity left entry in data set [2] (citrate/phosphate buffer pH 4.7, day 10) is recorded as “more than 20%”. Further, in data set [3], the activity improvement is given as 16 folds. For the same molecule, the “activity compared to endogenous GC” value in data set [4] is “more than 25 folds”. The protein uptake level result in data set [4] (Western blot, activated GCase vs wt. GCase, in words) is given as “equal”.

B2: wt. GCase: recombinant wt. enzyme velaglucerase alfa (Vpriv, Shire Human Genetic Therapies, Inc.) (protein, UniProt P04062 40-536, looked up)
Lysosomal acid …: ARPCIPKSFGYSSVVCVCNATYCDSFDPPTFPALGTFSRYESTRSGRRMELSMGPIQANHTGTGLLLTLQPEQKFQKVKGFGGAMTDAAALNILALSPPAQNLLLKSYFSEEGIGYNIIRVPMASCDFSIRTYTYADTPDDFQLHNFSLPEEDTKLKIPLIHRALQLAQRPVSLLASPWTSPTWLKTNGAVNGKGSLKGQPGDIYHQTWARYFVKFLDAYAEHKLQFWAVTAENEPSAGLLSGYPFQCLGFTPEHQRDFIARDLGPTLANSTHHNVRLLMLDDQRLLLPHWAKVVLTDPEAAKYVHGIAVHWYLDFLAPAKATLGETHRLFPNTMLFASEACVGSKFWEQSVRLGSWDRGMQYSHSIITNLLYHVVGWTDWNLALNPEGGPNWVRNFVDSPIIVDITKDTFYKQPMFYHLGHFSKFIPEGSQRVGLVASQKNDLDAVALMHPDGSAVVVVLNRSSKDVPLTIKDPAVGFLETISPGYSIHTYLWRRQ
modifications: velaglucerase alfa
In the case of B2, in data set [2] (citrate/phosphate buffer pH 4.7, day 4), the activity left result was “about 15%”. In data set [4], the “activity compared to endogenous GC” value is on record as “about 3 folds”.
